Source: US20260234226A1 (IMAGINAB, published 2026)

T1: DLL3 on tumor cells of the SHP-77 and NCI-H82 cell lines (UniProt Q9NYJ7 27-618, limits assumed)
T1 construct: whole, on cells; also called cellular targets
T1 sequence (looked up): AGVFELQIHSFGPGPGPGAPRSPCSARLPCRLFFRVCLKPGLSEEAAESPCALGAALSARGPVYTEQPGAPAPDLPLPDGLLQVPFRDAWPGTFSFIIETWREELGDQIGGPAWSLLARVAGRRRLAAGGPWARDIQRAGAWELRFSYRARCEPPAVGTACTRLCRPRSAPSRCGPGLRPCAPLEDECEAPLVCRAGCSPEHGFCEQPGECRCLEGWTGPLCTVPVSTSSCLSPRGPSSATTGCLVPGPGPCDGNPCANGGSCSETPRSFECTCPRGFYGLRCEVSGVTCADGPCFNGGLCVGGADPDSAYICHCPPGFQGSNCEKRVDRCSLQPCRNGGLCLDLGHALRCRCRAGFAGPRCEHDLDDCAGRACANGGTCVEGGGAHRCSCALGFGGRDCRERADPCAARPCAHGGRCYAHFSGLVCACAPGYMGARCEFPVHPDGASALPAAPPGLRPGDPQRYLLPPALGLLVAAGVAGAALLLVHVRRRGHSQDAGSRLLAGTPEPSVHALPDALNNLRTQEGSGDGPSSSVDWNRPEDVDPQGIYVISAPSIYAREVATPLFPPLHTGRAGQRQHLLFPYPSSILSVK


Key:
[1] = target: T2, purified human/cynomolgus/dog/mouse/rat or minipig DLL3 antigen (ELISA coat) (human/cynomolgus/dog/mouse/rat or …); assay: ELISA on plate-coated recombinant DLL3 antigen, A650 readout, left panel 'DLL3 ELISA'; the table gives no unit, nM is from the axis 'Antibody Concentration (nM)'
T2 construct: May be the same protein as the his-tagged antigen used for BLI
T2 sequence (Q9NYJ7 whole entry): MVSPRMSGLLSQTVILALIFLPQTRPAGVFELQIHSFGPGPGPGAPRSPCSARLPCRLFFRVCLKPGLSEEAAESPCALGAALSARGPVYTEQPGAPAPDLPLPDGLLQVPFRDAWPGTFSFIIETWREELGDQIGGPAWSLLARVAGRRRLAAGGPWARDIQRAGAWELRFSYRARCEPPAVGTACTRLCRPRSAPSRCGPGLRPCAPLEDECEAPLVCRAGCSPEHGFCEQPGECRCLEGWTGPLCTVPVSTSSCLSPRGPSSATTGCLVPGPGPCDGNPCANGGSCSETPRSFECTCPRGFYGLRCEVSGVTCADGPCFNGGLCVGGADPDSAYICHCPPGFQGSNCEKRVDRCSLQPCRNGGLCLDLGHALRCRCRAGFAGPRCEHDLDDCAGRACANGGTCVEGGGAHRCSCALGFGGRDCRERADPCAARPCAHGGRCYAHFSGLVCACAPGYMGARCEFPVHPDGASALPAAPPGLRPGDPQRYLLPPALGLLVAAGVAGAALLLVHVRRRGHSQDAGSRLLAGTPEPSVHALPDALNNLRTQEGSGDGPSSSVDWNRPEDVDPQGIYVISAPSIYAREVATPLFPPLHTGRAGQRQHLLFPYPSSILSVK
Protocol: (§1) Binding affinity of the novel antigen binding constructs to a purified human/cynomolgus/dog/mouse/rat or minipig DLL3 antigen was assessed using ELISA. For this assay, a 96 well ELISA plate was coated with the DLL3 antigen diluted to a concentration of […] in coating buffer (0.05M sodium carbonate-bicarbonate buffer, pH 9.6). 100 μl of this coating solution was added to each well in the plate and incubate at 4° C. overnight. The plate was washed 3 times with 300 μl per well of washing buffer (PBS with 0.05% Tween-20). After the last wash, the plate was blocked by adding to each well 200 μl of blocking buffer (PBS with 1% BSA) warmed to room temperature. The plate was then incubated at room temperature for 1 hour under gentle agitation. After blocking, the plate was washed 3 times with 300 μl per well of washing buffer. Dilution samples for each minibody were created by making 2.5× dilutions from a starting sample at 100 ng/mL, or 250 ng/mL, or 1000 ng/mL or 3000 ng/mL in 100 μL sample buffer (PBS with 1% BSA). […]
(§2) Detection was performed by adding 100 μl of HRP labeled detection secondary antibody at an appropriate dilution and incubating the plate at room temperature for 1 hour under gentle agitation. […] The plate is recorded by reading OD at 650 nm in a plate reader within 20 min after terminating the reaction.

[2] = target: T2, purified human/cynomolgus/dog/mouse/rat …; assay: ELISA, plate coated with purified DLL3 antigen, HRP secondary (FIG. 8)
Protocol: Binding affinity of the novel antigen binding constructs to a purified human/cynomolgus/dog/mouse/rat or minipig DLL3 antigen was assessed using ELISA. For this assay, a 96 well ELISA plate was coated with the DLL3 antigen diluted to a concentration of […] in coating buffer (0.05M sodium carbonate-bicarbonate buffer, pH 9.6). 100 μl of this coating solution was added to each well in the plate and incubate at 4° C. overnight. The plate was washed 3 times with 300 μl per well of washing buffer (PBS with 0.05% Tween-20). After the last wash, the plate was blocked by adding to each well 200 μl of blocking buffer (PBS with 1% BSA) warmed to room temperature. The plate was then incubated at room temperature for 1 hour under gentle agitation. After blocking, the plate was washed 3 times with 300 μl per well of washing buffer. Dilution samples for each minibody were created by making 2.5× dilutions from a starting sample at 100 ng/mL, or 250 ng/mL, or 1000 ng/mL or 3000 ng/mL in 100 μL sample buffer (PBS with 1% BSA). The dilution samples were transferred to the assay plate and incubated at room temperature for 1 hour under gentle agitation. The plate was then washed 3 times with 300 μl per well of washing buffer.
Detection was performed by adding 100 μl of HRP labeled detection secondary antibody at an appropriate dilution and incubating the plate at room temperature for 1 hour under gentle agitation. The plate was then washed 3 times with 300 μl per well of washing buffer. For color development, 100 μl of TMB substrate regent, pre-warmed to room temperature, was added to the plate and incubated in the dark at room temperature for 15 min. The reaction was then stopped by adding 100 μl of 650 nm stop solution to the plate and mixed for 1 min at room temperature under gentle agitation. The plate is recorded by reading OD at 650 nm in a plate reader within 20 min after terminating the reaction.

[3] = target: T3, his-tagged-DLL3 antigen (purified human/cynomolgus/dog/mouse/rat or minipig DLL3 antigen) (human/cynomolgus/dog/mouse/rat or …); assay: biolayer interferometry (Octet BLItz), his-tagged DLL3 on nickel-NTA tip, minibody in solution
T3 construct: Antigen loaded on nickel-NTA tips for biolayer interferometry; also called Delta-like protein 3
T3 sequence (Q9NYJ7 whole entry): as above
Protocol: (§3) As disclosed herein, the binding kinetics of the novel antigen binding constructs to a purified human/cynomolgus/dog/mouse/rat or minipig DLL3 antigen was assessed using biolayer interferometry (TABLE 9) (FIG. 9). The his-tagged-DLL3 antigen was diluted in phosphate buffer saline (PBS) at 10 μg/mL and loaded on a nickel-NTA tip until saturation. The on-rate (Kon) and off-rate (Koff), and the dissociation constant KD, where recorded on Octet BLItz instrument. Dilution samples of the antigen binding construct were prepared in PBS at concentrations between 100 nM and 0.1 nM, by 2.5× dilutions and binding curves recorded at each concentration. Off-rate curves were recorded by immersion of the tip in PBS.

[4] = target: T3, his-tagged-DLL3 antigen (purified …); assay: biolayer interferometry, his-tagged DLL3 on a Ni-NTA tip, minibody at 100 nM; the table gives no unit, nm is from the axis 'Binding (nm)'
Protocol: as §3

[5] = target: T2, purified human/cynomolgus/dog/mouse/rat …; assay: ELISA on plate-coated recombinant DLL3 antigen, A650 readout, panel with IAB57M1-7, IAB57M2-8, IAB57M1-3 and IAB57M2-6; the table gives no unit, nM is from the axis 'Antibody Concentration (nM)'
Protocol: as §1, §2

[6] = target: T1, DLL3 on tumor cells of the SHP-77 and …; assay: flow cytometry on NCI-H82 tumor cells, mean fluorescence; the legend gives no unit, nM is from the axis '[Minibody],nM'
Protocol: (§4) As disclosed herein, the binding of constructs to cellular targets was assessed using flow cytometry. Stock of 2.5× serial dilution of minibodies were created starting from a concentration of 100 nM in 180 μl FACS buffer (PBS 2% FBS). Cells were added to a Corning V-bottom polypropylene cell culture plate at 200,000 cells/well. The cells were centrifuged at 100 rpm for 3 minutes and the supernatant discarded. The minibody dilution series were transferred to the plate containing cell pellets and incubated for 1 hr at 4° C. The plate was then washed 3 times with FACS buffer at 200 μl/well, discarding supernatant after each wash by centrifugation at 1000 rpm. 50 μl/well of detection antibody R&D AlexaFluor-647 Goat anti Human (H+L) was added at a 1:100 dilution in FACS buffer and incubated at 4° C. 1 hr. The plate was washed 3 times with FACS buffer at 200 μl/well, discarding supernatant after each wash by centrifuging at 1000 rpm. Cells were then fixed by adding 100 μl of 1% paraformaldehyde in PBS and incubating at room temperature for 15 minutes. 100 μl of PBS were added to each well and the plate was analyzed by flow cytometry using the allophycocyanin fluorescence setting.

[7] = target: T1, DLL3 on tumor cells of the SHP-77 and …; assay: flow cytometry on SHP-77 tumor cells, mean fluorescence; the legend gives no unit, nM is from the axis '[Minibody],nM'
Protocol: as §4

Row | EC50 [1] | EC50 [2] | Kd [3] | koff [3] | kon [3] | R equilibrium [4] | EC50 [5] | EC50 [6] | EC50 [7] | Binder
1 | 0.115 nM | 0.0946 nM | 3.33 nM | 0.00279 s⁻¹ | 838000 M⁻¹ s⁻¹ | – | – | – | – | IAB57M1-1 (other, Parental minibody; also called parental minibody IAB57M1-1) EIVMTQSPATLSVSPGERATLSCKASQSVSNDVVWYQQKPGQAPRLLIYYASNRYTGIPARFSGSGSGTEFTLTISSLQSEDFAVYYCQQDYTSPWTFGQGTKLEIKGSTSGGGSGGGSGGGGSSQVQLVQSGAEVKKPGASVKVSCKASGYTFTNYGMNWVRQAPGQGLEWMGWINTYTGEPTYADDFKGRVTMTTDTSTSTAYMELRSLRSDDTAVYYCARIGDSSPSDYWGQGTLVTVSSEPKSSDKTHTCPPCPPCGGGSSGGGSGGQPREPQVYTLPPSREEMTKNQVSLTCLVKGFYPSDIAVEWESNGQPENNYKTTPPVLDSDGSFFLYSKLTVDKSRWQQGNVFSCSVMHEALHNHYTQKSLSLSPG
2 | – | 0.125 nM | – | – | – | – | – | – | – | IAB57M1-5 (other, Signal peptide left out) EIVMTQSPATLSVSPGERATLSCKASQSVSNDVVWYQQKPGQAPRLLIYYASNRNTGIPARFSGSGSGTEFTLTISSLQSEDFAVYYCQQDYTSPWTFGQGTKLEIKGSTSGGGSGGGSGGGGSSQVQLVQSGAEVKKPGASVKVSCKASGYTFTNYGMNWVRQAPGQGLEWMGWINTYTGEPTYADDFKGRVTMTTDTSTSTAYMELRSLRSDDTAVYYCARIGDSSPSDYWGQGTLVTVSSEPKSSDKTHTCPPCPPCGGGSSGGGSGGQPREPQVYTLPPSREEMTKNQVSLTCLVKGFYPSDIAVEWESNGQPENNYKTTPPVLDSDGSFFLYSKLTVDKSRWQQGNVFSCSVMHEALHNHYTQKSLSLSPG
3 | – | 0.111 nM | – | – | – | – | – | – | – | IAB57M1-7 (other, Signal peptide left out) EIVMTQSPATLSVSPGERATLSCKASQSVSNDVVWYQQKPGQAPRLLIYDASNRNTGIPARFSGSGSGTEFTLTISSLQSEDFAVYYCQQDYTSPWTFGQGTKLEIKGSTSGGGSGGGSGGGGSSQVQLVQSGAEVKKPGASVKVSCKASGYTFTNYGMNWVRQAPGQGLEWMGWINTYTGEPTYADDFKGRVTMTTDTSTSTAYMELRSLRSDDTAVYYCARIGDSSPSDYWGQGTLVTVSSEPKSSDKTHTCPPCPPCGGGSSGGGSGGQPREPQVYTLPPSREEMTKNQVSLTCLVKGFYPSDIAVEWESNGQPENNYKTTPPVLDSDGSFFLYSKLTVDKSRWQQGNVFSCSVMHEALHNHYTQKSLSLSPG
4 | 0.132 nM | 0.12 nM | 3.07 nM | 0.00214 s⁻¹ | 698000 M⁻¹ s⁻¹ | 0.876 nm | – | – | – | IAB57M2-2 (other, Parental minibody; Signal peptide left out; also called parental minibody IAB57M2-2) QVQLVQSGAEVKKPGASVKVSCKASGYTFTNYGMNWVRQAPGQGLEWMGWINTYTGEPTYADDFKGRVTMTTDTSTSTAYMELRSLRSDDTAVYYCARIGDSSPSDYWGQGTLVTVSSGSTSGGGSGGGSGGGGSSEIVMTQSPATLSVSPGERATLSCKASQSVSNDVVWYQQKPGQAPRLLIYYASNRYTGIPARFSGSGSGTEFTLTISSLQSEDFAVYYCQQDYTSPWTFGQGTKLEIKEPKSSDKTHTCPPCPPCGGGSSGGGSGGQPREPQVYTLPPSREEMTKNQVSLTCLVKGFYPSDIAVEWESNGQPENNYKTTPPVLDSDGSFFLYSKLTVDKSRWQQGNVFSCSVMHEALHNHYTQKSLSLSPG
5 | – | 0.118 nM | 4.84 nM | 0.00281 s⁻¹ | 581000 M⁻¹ s⁻¹ | 0.911 nm | – | – | – | IAB57M2-4 (other, Signal peptide left out) QVQLVQSGAEVKKPGASVKVSCKASGYTFTNYGMNWVRQAPGQGLEWMGWINTYTGEPTYADDFKGRVTMTTDTSTSTAYMELRSLRSDDTAVYYCARIGDSSPSDYWGQGTLVTVSSGSTSGGGSGGGSGGGGSSEIVMTQSPATLSVSPGERATLSCKASQSVSNDVVWYQQKPGQAPRLLIYDASNRYTGIPARFSGSGSGTEFTLTISSLQSEDFAVYYCQQDYTSPWTFGQGTKLEIKEPKSSDKTHTCPPCPPCGGGSSGGGSGGQPREPQVYTLPPSREEMTKNQVSLTCLVKGFYPSDIAVEWESNGQPENNYKTTPPVLDSDGSFFLYSKLTVDKSRWQQGNVFSCSVMHEALHNHYTQKSLSLSPG
6 | – | 0.161 nM | < 0.001 nM | < 1e-07 s⁻¹ | 785000 M⁻¹ s⁻¹ | – | 0.157 nM | 0.063 nM | 0.014 nM | IAB57M2-6 (other, Signal peptide left out) QVQLVQSGAEVKKPGASVKVSCKASGYTFTNYGMNWVRQAPGQGLEWMGWINTYTGEPTYADDFKGRVTMTTDTSTSTAYMELRSLRSDDTAVYYCARIGDSSPSDYWGQGTLVTVSSGSTSGGGSGGGSGGGGSSEIVMTQSPATLSVSPGERATLSCKASQSVSNDVVWYQQKPGQAPRLLIYYASNRNTGIPARFSGSGSGTEFTLTISSLQSEDFAVYYCQQDYTSPWTFGQGTKLEIKEPKSSDKTHTCPPCPPCGGGSSGGGSGGQPREPQVYTLPPSREEMTKNQVSLTCLVKGFYPSDIAVEWESNGQPENNYKTTPPVLDSDGSFFLYSKLTVDKSRWQQGNVFSCSVMHEALHNHYTQKSLSLSPG
7 | – | 0.123 nM | – | – | – | – | – | – | – | IAB57M2-8 (other, Signal peptide left out) QVQLVQSGAEVKKPGASVKVSCKASGYTFTNYGMNWVRQAPGQGLEWMGWINTYTGEPTYADDFKGRVTMTTDTSTSTAYMELRSLRSDDTAVYYCARIGDSSPSDYWGQGTLVTVSSGSTSGGGSGGGSGGGGSSEIVMTQSPATLSVSPGERATLSCKASQSVSNDVVWYQQKPGQAPRLLIYDASNRNTGIPARFSGSGSGTEFTLTISSLQSEDFAVYYCQQDYTSPWTFGQGTKLEIKEPKSSDKTHTCPPCPPCGGGSSGGGSGGQPREPQVYTLPPSREEMTKNQVSLTCLVKGFYPSDIAVEWESNGQPENNYKTTPPVLDSDGSFFLYSKLTVDKSRWQQGNVFSCSVMHEALHNHYTQKSLSLSPG
